How the values were obtained:
[1] = target: T1, TEV protease-mobilized soluble ATD (human, UniProt Q05586 19-561, biotinylated (Sulfo-NHS-Biotin) in the titration on plate-bound 5F5); experiment: ELISA, ATD captured on the plate by a Myc tag antibody
T1 construct: also called mobilized ATD; plate-adherent ATD
Method: To test binding of human NR1 antibodies to plate-adherent ATD, we added 5 μg/mL Myc antibody (C3956, Sigma-Aldrich) (100 μl/well) to Black 96-well plates (12-566-24, Thermo Fisher) overnight, washed the plates 3 times with PBST, blocked with 5% inactivated fetal bovine serum and 3% Goat serum (Invitrogen) in PBST for 1 h at 37° C., washed 3 times, added 5 μg/mL ATD, and then incubated for 1 h at 37° C. and washed 3 more times. We added human mAbs, 5F5, 2G6, 1D1, and control isotype 6A at 5 μg/mL (100 μl/well), or 5 μg/mL anti-NR1 mAb (MAB 1586 RUHL, Millipore), in triplicate samples, and incubated for 1 h at 37° C. After three additional PBST washes, secondary antibodies were added, either an anti-human IgG HRP conjugate (9040-05 Southern Biotech, Birmingham, Ala.) or anti-mouse IgG HRP conjugate (1010-05, Southern Biotech), at 1:2000 and incubated for 1 h at 37° C., followed by 3 washes. Super Signal ELISA Femto Substrate was used for detection. Data was collected in the Biotek SYNERGY II Microplate reader and analyzed with Microsoft Excel.

[2] = target: T2, NR1 ATD fusion protein on 293T-ATD cells (human); experiment: flow cytometry on 293T-ATD cells, co-stained with commercial anti-NR1 mAb
T2 construct: also called HEK293T-ATD; GluN1-ATD fused to the PDGF receptor transmembrane domain
Method: Primary antibodies included the BIOORBYT APC-labeled NR1 mAb at 10 μg/mL, an ALEXA FLUOR 488 labeled Myc tag mAb at 2 μg/mL (16-308, Millipore, Billerica, Mass.) three human IgG mAbs (5 μg/mL) isolated from a patient with ANRE (5F5, 2G6, 1D1) and the 6A isotype control mAb¹⁴. As a secondary antibody for the human mAbs, we used a FITC-conjugated F(ab′)2 goat anti-human IgG (109-096-008, Jackson ImmunoResearch, West Grove, Pa.). Cells were assayed with a BD FACSCANTO II (Becton Dickson, Franklin Lakes, N.J.). Data were analyzed using FLOWJO 8.8.7. Software (Tree Star, Ashland, Oreg.).

T1 sequence (Q05586 other isoform, or with tags, fused parts or gaps): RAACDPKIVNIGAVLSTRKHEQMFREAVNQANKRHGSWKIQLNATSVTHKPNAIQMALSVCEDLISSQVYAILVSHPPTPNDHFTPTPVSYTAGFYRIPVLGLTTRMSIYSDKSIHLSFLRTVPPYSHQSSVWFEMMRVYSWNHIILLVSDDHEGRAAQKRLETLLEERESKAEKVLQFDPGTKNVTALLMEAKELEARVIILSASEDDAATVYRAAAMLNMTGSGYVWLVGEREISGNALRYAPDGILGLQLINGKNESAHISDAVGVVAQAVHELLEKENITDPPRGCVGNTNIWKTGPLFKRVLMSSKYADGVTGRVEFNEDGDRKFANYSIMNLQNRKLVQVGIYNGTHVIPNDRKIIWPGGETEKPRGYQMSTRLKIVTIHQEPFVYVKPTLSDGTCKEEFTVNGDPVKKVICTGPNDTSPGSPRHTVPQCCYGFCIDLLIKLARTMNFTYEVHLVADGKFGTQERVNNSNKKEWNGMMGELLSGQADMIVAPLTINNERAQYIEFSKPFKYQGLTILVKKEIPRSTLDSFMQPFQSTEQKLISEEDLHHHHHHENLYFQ
T2 sequence (chain, as listed by the source limits assumed): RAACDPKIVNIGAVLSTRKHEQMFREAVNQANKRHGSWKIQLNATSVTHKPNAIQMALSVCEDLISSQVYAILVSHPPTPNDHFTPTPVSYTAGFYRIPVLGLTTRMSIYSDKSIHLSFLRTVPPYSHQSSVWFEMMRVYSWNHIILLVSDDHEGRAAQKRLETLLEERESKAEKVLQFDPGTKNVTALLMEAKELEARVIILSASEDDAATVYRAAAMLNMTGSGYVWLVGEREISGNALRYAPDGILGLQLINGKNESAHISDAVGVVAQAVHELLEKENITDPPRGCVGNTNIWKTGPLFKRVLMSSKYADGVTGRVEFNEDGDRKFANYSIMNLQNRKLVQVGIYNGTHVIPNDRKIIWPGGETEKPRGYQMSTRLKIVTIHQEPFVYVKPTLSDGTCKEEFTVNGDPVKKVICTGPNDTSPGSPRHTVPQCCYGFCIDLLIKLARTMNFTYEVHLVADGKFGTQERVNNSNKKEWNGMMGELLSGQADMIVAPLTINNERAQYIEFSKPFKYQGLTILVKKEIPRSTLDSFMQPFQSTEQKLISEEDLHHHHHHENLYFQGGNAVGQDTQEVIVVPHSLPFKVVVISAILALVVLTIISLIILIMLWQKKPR

binding result [1]	Percent GluN1 positive 293T-ATD cells bound [2] [%]	double positive cells [2] [%]	Binder
binds	53.7	37	mAb 1D1 (antibody, V domains shown, Human IgG mAb from an ANRE patient; also called 1G1; 1DA) VH: LVQLVESGGGVVQSGRSLRLSCAASGFAFHTFTIHWVRQAPGKGLDWVTAIYFDGTKKYYADSVKGRFTVSRDNSKNTVYLQMNGLRGEDTAVYYCARARYSYGLSFDYWGQGTPVTVSS VL: QSVVTQPPSVSAAPGQKVTISCSASSSYLGSNYVSWYQQLPGTAPKLLIYDNNKRSSGISDRFSGSKSGTSATLDITGLQTGDEADYYCGAWDSSLSVVVFGGGTKLTVL
binds	90.5	62.3	mAb 5F5 (antibody, V domains shown, Biotinylated or CypHer5E-labelled in some assays; also called SFS; 5G5) VH: QVQLVESGGGVVRPGGSLRLSCAASGFTFSTYSLHWVRQAPGKGLEWVGVILYDGSKKYYADSVRGRFTISRDNSKSTLNLDMSSLRPDDTAVYYCARDPIAVAPRPSGMVPQGFDYWGQGTLVTVSS VL: QSVVTQPPSASGTPGQRVTISCSGSSSNIGRNFVFWYRQLPGTAPKVLIYKNIQRPSGVPDRISGSRSGSSASLAISGLRSEDEADYYCASWDDSLSGVVFGGGTKLTVL
binds	58.8	40.5	mAb 2G6 (antibody, V domains shown, Human IgG lambda mAb from a hybridoma of an ANRE patient; Biotinylated or CypHer5E-labelled in some assays; also called 2C6; 2G6-biotin) VH: QVQLQESGGGVVQPGRSLRLSCAASGFSFNAFAMHWVRQAPGKGLEWVARISHYGSDDYYADSVKGRFTISRDNSQNTLFLQMNSLKAEDTGVYYCWRGFTLVRGVISRNPINRFSGMDVWGQGTTVTVS VL: SYELMQPPSVSVSPGQTARITCSGDALPKKYAYWYQQKSGQAPILVIYEDNKRPSGIPERFSGSSSGTMATLTISGAQVEDEADYFCYSTDSSGNHGVFGGGTKLTVL

— patent US20220073611A1 (LANKENAU INSTITUTE FOR MEDICAL RESEARCH, published 2022)
